Experimental data taken from patent publication US20260216326A1 (PROMETHEUS BIOSCIENCES, published 2026).

T1: human TL1A (Fitzgerald #30R-AT070) (human, UniProt O95150 72-251, limits assumed)
T1 construct: Coated on the ELISA plate at 1 ug/mL; also called TNFSF15
T1 sequence (looked up): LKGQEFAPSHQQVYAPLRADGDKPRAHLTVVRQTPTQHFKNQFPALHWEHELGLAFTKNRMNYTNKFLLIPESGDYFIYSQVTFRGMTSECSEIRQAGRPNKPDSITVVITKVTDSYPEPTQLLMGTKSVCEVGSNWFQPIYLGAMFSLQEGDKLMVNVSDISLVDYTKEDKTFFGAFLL


Target: T1, human TL1A (Fitzgerald #30R-AT070)
Assay: ELISA titration, coated human TL1A, culture supernatant

Binder | Kd
A148 (antibody, human IgG1, V domains shown, human IgG1/kappa (pFuse vectors), culture supernatant) VH: QVQLVQSGAEVKKPGASVKVSCKASGFDIQDTYMHWVRQAPGQGLEWMGRIEPASGHIKYDPKFQVRVTMTRDTSTSTVYMELSSLRSEDTAVYYCARSGGLPDWWGQGTTVTVSS VL: EIVLTQSPGTLSLSPGERATLSCRASSSVSYMYWYQQKPGQAPRPLIYATSNLASGIPDRFSGSGSGTDFTLTISRLEPEDFAVYYCQQWEGNPRTFGGGTKLEIK | 0.046 nM
A58 (antibody, human IgG1, V domains shown, human IgG1/kappa (pFuse vectors), culture supernatant) VH: QVQLVQSGAEVKKPGASVKVSCKASGFDIQDTYMHWVKQAPGQGLEWMGRIEPASGHIKYDPKFQGRVTMTRDTSTSTVYMELSSLRSEDTAVYYCARSGGLPDWWGQGTTVTVSS VL: EIVLTQSPGTLSLSPGERATLSCRASSSVSYMYWYQQKPGQAPRLLIYATSNLASGIPDRFSGSGSGTDFTLTISRLEPEDFAVYYCQQWEGNPRTFGGGTKLEIK | 0.112 nM
A33 (antibody, V domains shown) VH: DVQLVQSGAEVKKPGASVKVSCKASGFDIQDTYMHWVRQAPGQGLEWMGRIEPASGHIKYDPKFQGRVTMTRDTSTSTVYMELSSLRSEDTAVYYCARSGGLPDWWGQGTTVTVSS VL: EIVLTQSPGTLSLSPGERATLSCRASSSVSYMYWYQQKPGQAPRLLIYATSNLASGIPDRFSGSGSGTDFTLTISRLEPEDFAVYYCQQWEGNPRTFGGGTKLEIK | 0.081 nM
A65 (antibody, human IgG1, V domains shown, human IgG1/kappa (pFuse vectors), culture supernatant) VH: QVQLVQSGAEVKKPGASVKVSCKASGFDIQDTYMHWVRQAPGQGLEWMGRIEPASGHIKYDPKFQGRATMTRDTSTSTVYMELSSLRSEDTAVYYCARSGGLPDWWGQGTTVTVSS VL: EIVLTQSPGTLSLSPGERATLSCRASSSVSYMYWYQQKPGQAPRLLIYATSNLASGIPDRFSGSGSGTDFTLTISRLEPEDFAVYYCQQWEGNPRTFGGGTKLEIK | 0.097 nM
A66 (antibody, human IgG1, V domains shown, human IgG1/kappa (pFuse vectors), culture supernatant) VH: QVQLVQSGAEVKKPGASVKVSCKASGFDIQDTYMHWVRQAPGQGLEWMGRIEPASGHIKYDPKFQGRVTITRDTSTSTVYMELSSLRSEDTAVYYCARSGGLPDWWGQGTTVTVSS VL: EIVLTQSPGTLSLSPGERATLSCRASSSVSYMYWYQQKPGQAPRLLIYATSNLASGIPDRFSGSGSGTDFTLTISRLEPEDFAVYYCQQWEGNPRTFGGGTKLEIK | 0.15 nM
A69 (antibody, human IgG1, V domains shown, human IgG1/kappa (pFuse vectors), culture supernatant) VH: EVQLVQSGAEVKKPGASVKVSCKASGFDIQDTYMHWVRQAPGQGLEWMGRIEPASGHIKYDPKFQGRVTMTRDTSTSTVYMELSSLRSEDTAVYYCARSGGLPDWWGQGTTVTVSS VL: EIVLTQSPGTLSLSPGERATLSCRASSSVSYMYWYQQKPGQAPRLLIYATSNLASGIPDRFSGSGSGTDFTLTISRLEPEDFAVYYCQQWEGNPRTFGGGTKLEIK | 0.136 nM
A57 (antibody, human IgG1, V domains shown, human IgG1/kappa (pFuse vectors), culture supernatant) VH: QVQLVQSGAEVKKPGASVKVSCKASGFDIQDTYMHWVRQRPGQGLEWMGRIEPASGHIKYDPKFQGRVTMTRDTSTSTVYMELSSLRSEDTAVYYCARSGGLPDWWGQGTTVTVSS VL: EIVLTQSPGTLSLSPGERATLSCRASSSVSYMYWYQQKPGQAPRLLIYATSNLASGIPDRFSGSGSGTDFTLTISRLEPEDFAVYYCQQWEGNPRTFGGGTKLEIK | 0.191 nM
A72 (antibody, human IgG1, V domains shown, human IgG1/kappa (pFuse vectors), culture supernatant) VH: QVQLVQSGAEVKKPGASVKVSCKASGFDIQDTYMHWVRQAPGQGLEWMGRIEPASGHIKYDPKFQGRATITTDTSTSTVYMELSSLRSEDTAVYYCARSGGLPDWWGQGTTVTVSS VL: EIVLTQSPGTLSLSPGERATLSCRASSSVSYMYWYQQKPGQAPRLLIYATSNLASGIPDRFSGSGSGTDFTLTISRLEPEDFAVYYCQQWEGNPRTFGGGTKLEIK | 0.159 nM
A68 (antibody, human IgG1, V domains shown, human IgG1/kappa (pFuse vectors), culture supernatant) VH: QVQLVQSGAEVKKPGASVKVSCKASGFDIQDTYMHWVRQAPGQGLEWMGRIEPASGHIKYDPKFQVRVTITRDTSTSTVYMELSSLRSEDTAVYYCARSGGLPDWWGQGTTVTVSS VL: EIVLTQSPGTLSLSPGERATLSCRASSSVSYMYWYQQKPGQAPRLLIYATSNLASGIPDRFSGSGSGTDFTLTISRLEPEDFAVYYCQQWEGNPRTFGGGTKLEIK | 0.074 nM
A67 (antibody, human IgG1, V domains shown, human IgG1/kappa (pFuse vectors), culture supernatant) VH: QVQLVQSGAEVKKPGASVKVSCKASGFDIQDTYMHWVRQAPGQGLEWMGRIEPASGHIKYDPKFQVRATMTRDTSTSTVYMELSSLRSEDTAVYYCARSGGLPDWWGQGTTVTVSS VL: EIVLTQSPGTLSLSPGERATLSCRASSSVSYMYWYQQKPGQAPRLLIYATSNLASGIPDRFSGSGSGTDFTLTISRLEPEDFAVYYCQQWEGNPRTFGGGTKLEIK | 0.089 nM
A59 (antibody, human IgG1, V domains shown, human IgG1/kappa (pFuse vectors), culture supernatant) VH: QVQLVQSGAEVKKPGASVKVSCKASGFDIQDTYMHWVKQRPGQGLEWMGRIEPASGHIKYDPKFQGRVTMTRDTSTSTVYMELSSLRSEDTAVYYCARSGGLPDWWGQGTTVTVSS VL: EIVLTQSPGTLSLSPGERATLSCRASSSVSYMYWYQQKPGQAPRLLIYATSNLASGIPDRFSGSGSGTDFTLTISRLEPEDFAVYYCQQWEGNPRTFGGGTKLEIK | 0.136 nM
A62 (antibody, human IgG1, V domains shown, human IgG1/kappa (pFuse vectors), culture supernatant) VH: QVQLVQSGAEVKKPGASVKVSCKASGFDIQDTYMHWVRQAPGQGLEWIGRIDPASGHIKYDPKFQGRVTMTRDTSTSTVYMELSSLRSEDTAVYYCARSGGLPDWWGQGTTVTVSS VL: EIVLTQSPGTLSLSPGERATLSCRASSSVSYMYWYQQKPGQAPRLLIYATSNLASGIPDRFSGSGSGTDFTLTISRLEPEDFAVYYCQQWEGNPRTFGGGTKLEIK | 0.15 nM
A29 (antibody, human IgG1, V domains shown, human IgG1/kappa (pFuse vectors), culture supernatant) VH: QVQLVQSGAEVKKPGASVKVSCKASGFDIQDTYMHWVKQRPGQGLEWIGRIDPASGHTKYDPKFQVRATITTDTSTSTAYLELSSLRSEDTAVYYCARSGGLPDVWGQGTTVTVSS VL: EIVLTQSPGTLSLSPGERATLSCRASSSVSYMYWYQQKPGQAPRPWIYATSNLASGIPDRFSGSGSGTDFTLTISRLEPEDFAVYYCQQWEGNPRTFGGGTKLEIK | 0.065 nM

The remaining lines, values ahead:

Kd | Binder
0.149 nM | A70 (antibody, human IgG1, V domains shown, human IgG1/kappa (pFuse vectors), culture supernatant) VH: QVQLVQSGAEVKKPGASVKVSCKASGFDIQDTYMHWVRQAPGQGLEWMGRIEPASGHIKYDPKFQGRVTMTTDTSTSTVYMELSSLRSEDTAVYYCARSGGLPDWWGQGTTVTVSS VL: EIVLTQSPGTLSLSPGERATLSCRASSSVSYMYWYQQKPGQAPRLLIYATSNLASGIPDRFSGSGSGTDFTLTISRLEPEDFAVYYCQQWEGNPRTFGGGTKLEIK
0.15 nM | A71 (antibody, human IgG1, V domains shown, human IgG1/kappa (pFuse vectors), culture supernatant) VH: QVQLVQSGAEVKKPGASVKVSCKASGFDIQDTYMHWVRQAPGQGLEWMGRIEPASGHIKYDPKFQGRVTITTDTSTSTVYMELSSLRSEDTAVYYCARSGGLPDWWGQGTTVTVSS VL: EIVLTQSPGTLSLSPGERATLSCRASSSVSYMYWYQQKPGQAPRLLIYATSNLASGIPDRFSGSGSGTDFTLTISRLEPEDFAVYYCQQWEGNPRTFGGGTKLEIK
0.09 nM | A64 (antibody, human IgG1, V domains shown, human IgG1/kappa (pFuse vectors), culture supernatant) VH: QVQLVQSGAEVKKPGASVKVSCKASGFDIQDTYMHWVRQAPGQGLEWMGRIEPASGHIKYDPKFQVRVTMTRDTSTSTVYMELSSLRSEDTAVYYCARSGGLPDWWGQGTTVTVSS VL: EIVLTQSPGTLSLSPGERATLSCRASSSVSYMYWYQQKPGQAPRLLIYATSNLASGIPDRFSGSGSGTDFTLTISRLEPEDFAVYYCQQWEGNPRTFGGGTKLEIK
0.111 nM | A32 (antibody, V domains shown) VH: DVQLVQSGAEVKKPGASVKVSCKASGFDIQDTYMHWVRQAPGQGLEWMGRIEPASGHIKYDPKFQGRVTMTRDTSTSTVYMELSSLRSEDTAVYYCARSGGLPDWWGQGTTVTVSS VL: EIVLTQSPGTLSLSPGERATLSCRASSSVSYMYWYQQKPGQAPRPWIYATSNLASGIPDRFSGSGSGTDFTLTISRLEPEDFAVYYCQQWEGNPRTFGGGTKLEIK
0.092 nM | A31 (antibody, human IgG1, V domains shown, human IgG1/kappa (pFuse vectors), culture supernatant) VH: QVQLVQSGAEVKKPGASVKVSCKASGFDIQDTYMHWVRQAPGQGLEWMGRIEPASGHIKYDPKFQGRVTMTRDTSTSTVYMELSSLRSEDTAVYYCARSGGLPDWWGQGTTVTVSS VL: EIVLTQSPGTLSLSPGERATLSCRASSSVSYMYWYQQKPGQAPRPWIYATSNLASGIPDRFSGSGSGTDFTLTISRLEPEDFAVYYCQQWEGNPRTFGGGTKLEIK
0.168 nM | A60 (antibody, human IgG1, V domains shown, human IgG1/kappa (pFuse vectors), culture supernatant) VH: QVQLVQSGAEVKKPGASVKVSCKASGFDIQDTYMHWVRQAPGQGLEWMGRIDPASGHIKYDPKFQGRVTMTRDTSTSTVYMELSSLRSEDTAVYYCARSGGLPDWWGQGTTVTVSS VL: EIVLTQSPGTLSLSPGERATLSCRASSSVSYMYWYQQKPGQAPRLLIYATSNLASGIPDRFSGSGSGTDFTLTISRLEPEDFAVYYCQQWEGNPRTFGGGTKLEIK
0.127 nM | A61 (antibody, human IgG1, V domains shown, human IgG1/kappa (pFuse vectors), culture supernatant) VH: QVQLVQSGAEVKKPGASVKVSCKASGFDIQDTYMHWVRQAPGQGLEWIGRIEPASGHIKYDPKFQGRVTMTRDTSTSTVYMELSSLRSEDTAVYYCARSGGLPDWWGQGTTVTVSS VL: EIVLTQSPGTLSLSPGERATLSCRASSSVSYMYWYQQKPGQAPRLLIYATSNLASGIPDRFSGSGSGTDFTLTISRLEPEDFAVYYCQQWEGNPRTFGGGTKLEIK
0.132 nM | A63 (antibody, human IgG1, V domains shown, human IgG1/kappa (pFuse vectors), culture supernatant) VH: QVQLVQSGAEVKKPGASVKVSCKASGFDIQDTYMHWVRQAPGQGLEWMGRIEPASGHVKYDPKFQGRVTMTRDTSTSTVYMELSSLRSEDTAVYYCARSGGLPDWWGQGTTVTVSS VL: EIVLTQSPGTLSLSPGERATLSCRASSSVSYMYWYQQKPGQAPRLLIYATSNLASGIPDRFSGSGSGTDFTLTISRLEPEDFAVYYCQQWEGNPRTFGGGTKLEIK
0.128 nM | A73 (antibody, human IgG1, V domains shown, human IgG1/kappa (pFuse vectors), culture supernatant) VH: QVQLVQSGAEVKKPGASVKVSCKASGFDIQDTYMHWVRQAPGQGLEWMGRIEPASGHIKYDPKFQGRVTMTTDTSTSTVYMELSSLRSEDTAVYYCARSGGLPDWWGQGTTVTVSS VL: EIVLTQSPGTLSLSPGERATLSCRASSSVSYMYWYQQKPGQAPRPWIYATSNLASGIPDRFSGSGSGTDFTLTISRLEPEDFAVYYCQQWEGNPRTFGGGTKLEIK
